The record followed here is the DeepSol protein solubility set.

A short description of this series: soluble on expression in E. coli; label from the status in PepcDB or PDB records.
For the sequence “MNPKHSCTNFGADIPVNSQLIVTTSELRQKLKEKNKFILVDNRTWDEHIGKVSGYTYYDKKGRIPGALYGHSGSDSVSLEEYRNIDNTMRNKYEILEMWDKENIDVNKQLIFMCGSGWRAAEVLTYANVIGVENTSLYSDGWMGWSLDNSNLIEVGEHKLEHHHHHH”, the “soluble on expression in E. coli” value is “not soluble”.
The value for “MYSKIEGSIITARFDKETDFFTDLVDLCNKYEVKSGTVLWAIGMLKEFQIGYWNGNDYEKETFRERLELVSLHGSIAENDPRFHIHAAGARGNHGIVGGHLFSAKVDPLVEIQIMKITGFSMSRELDNSDGLYKLVIKLEHHHHHH” was “not soluble”.
With “GSQDVKCSLGYFPCGNITKCLPQLLHCNGVDDCGNQADEDNCG”, the “soluble on expression in E. coli” value is listed as “soluble”.
The value for “MARETHDREDLLLEGVNLPERARLLHRASGREWVIGWRTGGGAAFYDGPDRVYQFNADNQLRRVYLDGSKLAAEGGRLCELRRPEPTNPDGSAGDRTQKVKLVWQPIDSAIQRNVLEQWAETRQQLLTALELFRERDLPNVTIASTAPDGSNSSLSTQPSIYSWESVGIDAFEMLDRTSGWLVSITDNPEIAAQPNA” was “soluble”.
The value for “VSKRAAPFLYMITQRIEERGLPMELALLPVVESSFDAFAYSHGSAAGLWQFVPGTGKMMGLEQNYWYDGRRDVAASTDAALDYLVQLNERFDGNWEHAIAAYNSGGGRVSSAIRKNKKLGKPVDFFSLDLPKETSSYVPKLLALADVVANQEKYGIDIPSIPNKPVLT” was “not soluble”; that for “MITQVNQLDELQLKDLKTLRAECKKNDGSIPNLYIHILKQHRSLPTSFLYYQNGALIGFLSIYFFYDDAVEVAVLVSPQYRRQGIAKQLIKEALPLIKSQNYFNLIFSCPSRLNDNWLTSKGFTYLHSEYFMERDDLNPILDYIRPLSFRMATLEDIPILCGLDEVCFPDKNQDSVHRFQQILNEREYEIVIAMLNNHPIGKSHIRWQTKRATLSDIAILPKEQGKGFGSALIAHCINMILSEGKSRVDLDVETHNKKALNLYIQLGFHIQNACDYWSINVNQLAK” was “not soluble”; that for “KGTLYLVATPIGNLEDVTFRAIRTLKEADQIAAEDTRQTKKLLNHFDIATKLVSYHEHNKETMGKRLIDDLIEGRTIALVSDAGMPAISDPGYELVVSAIKEGIAVIPIPGA” was “not soluble”.
The value for “MAHHHHHHMRAQSDLSPSSVSELRSKLKGVRVEVGSLVSFRDEPAFEMVMRLNKRHNGNLVSAVLSKGNAACGLGGDASGSGEGIGEGRVMADRSRHVEELRMVFIPKAYGAFLEDEMQKWLDPFRGRGEANRTKRKRDEVDDNEVTDIDSDVDTDECDDADSFRSV” was “soluble”; that for “AHHHHHHGSYVIIMGAGRIGTLVAKMLENSGHDVAIIEMNKDRARAVSDIVSGLVIEGDATDQNILESANVRNADAFVALTGKDDANILACILAKHLNPRIMTILRITDPRKKKIFEEVKDLKKYFDVVVSPEDIAANYIFRVVITPGFDRVLLPREGAEIIQFHIDENSKVAGKAVKDLNLPRDSLIIAIYDEKGNLIIPSGETILPKRGTVVVFAKDSALKEIKKIMEEKVEESEE” was “soluble”.
Regarding “MHHHHHHMKRKSIFKDKVFLFLNAKQYKKLSPAVLFGGGKTDLLMGELKDASVLDNPATCVIDVAMTESQLSESQSTQPWITSTLDLLQSKGLRTIPEAEIGLAVINVSTEIYCNPRR”, the “soluble on expression in E. coli” value was “soluble”.
The value for “MAHHHHHHMSDSEWSSDSGVSNAEAIAAASLNKHLGELMTLQHPSRVTHRRPAYATSEGTTASSATISHTPRVSGEAPRKQARMDISSLIRQALSQSSAHCTSANVDEVAGRVVAALRQKAGGAEVARAVTRALADPLNEELRESVLSGLLRPEELVALDEVSLLNQAERSVLAKARRERLNQHSVEYLERLNLTVTNMLTCPECRSHECYANFRFTDFVKWQGDDQTPTLQRCCRCSVSFCNERGKRAASAPGACLCAWVAVKVLSATTASRPCIHPSSNRHRTARRGSTRETGKISRFSSCRTRHHFCQKR” was “not soluble”; that for “MVKPDWWIREMARKGMIEPFEERLVREGVISYGLSSFGYDLRAAPEWKIFTNVFSSLVDPKNFDPKSFVEYEGEEVVIPPNSFALTRSLEYIRMPDNVIAIALGKSTYARCGIVVNVTPLEPGWEGHVTLEISNTTPLPAKVYAGEGIVQLLFLEGPRPEVTYRDRKGKYQGQKGITLPRV” was “soluble”.
The value for “MGSDKIHHHHHHKTEEHEKIEVLYETTLNLIHLLVEQGVIKQEVADEMIRKAEQKAKASQQQAREQGGQPPAGEPKKGEVRVTYVPEHIKKEIRDQLREEVVGQAKQERWGNVNATPEWLDRFTLEGDIRLREQADFFGDRNAPAANFQAIGQQIDNTTKDSHHRERIRMRLGINANVTRGVDLGLRLTTGNVNGPAVTGDLMGGSPTSTLQTLGTYNSKFSFVLDQAYLKLSPWDWLTVSGGRFPNPFFVGTVGNIYTGTIGKAPHTIPTAGVVHTDLLWDADVNFEGLAVNLHPWKKQERTIKPFLNAGIFPLQKINQSETVKAKDKWFYGAQAGIEWVPEGADTKIRLGAAYYDFENISGVRNPNFGDTLFNQTAPLFRQKGNSLFNIDNDGDPTTNLWALASDYKIANATLVADYSRFKPIHVIGTLDYARNVGYDQDRILARTGQDIKPEINAYQARLTVGYPVISERHQWQVLGFYRRSERDSMLDAFTDSNYLLGGTNHKGYTIQGLYGVAHNTWVGLRYMSYDNISGLPLSIDSVNLDLNARF” was “not soluble”; that for “MEVSTVNDVKIYNLSAGKSLPEWMSSRTRRKLEQRNTDVRQRIQLIQDFEMPDVSNTVNITPDGKYVWASGNYKPWLRCYDLNNLSLKFERGLDADVIKLIPLSDDYSKVVILEEERWIEMHAMLGRYFRMRMPCQGRDMALSEESSDLYLVGSKSEVYRFNLEQGCWLTPFESTAPLNCVQVCTEHQLICCGTTNGVVEAWDHRDKSLCGTLDAGSSVNSHIGENQKVAVTSVAFSDPLHIGVGTSTGQILIYDLRARRPLLIKDHNNELPINKLDFIKRDDGDVVASMDSRMMKLWHEEDGSPMAAIENTCPLNDFCRFPNSGMFFFANEAPKMLQYFIPQLGPAPKWCSYLENLTEEMEETETTVYDNYRFVTKKQLDDLGLSGLIGTNVLRAYMHGYFIDARLYNKAQTQMQPFAYEKYKDEKIKSMIADEREESAVKKKVEKLPAVNKALAARLRDEASAANQKAETKKEKKKSKKSDAATSLLADDRFKKLFESEDFEVDETSEQFLKNASIAQKMKAKGPVEVESEGEESEDNDASDSENEASGSDSEPKGSASWMVEENREVDMASDLESASSDEDIDQSLKAKRAKVRAAKKSERNIQKSQKYDERKEAKKIRKEQRQLSKPSKFVLHSIGTGETTRKFVDETVAVRDDADNKDSMALGARKRATARSDRKTKKVNDDDVPFGGREMTFTISKRDKDLRAEAAKTKQAAHAAERKEVSRRPNALVTKGLKKLPGNVNVGKRQNTF” was “soluble”; that for “MGHHHHHHSHMAYEISKKVLHIVGKTNATYKLIEEGDKILLGLSGGKDSIMLACILARMQKHAPFKFDFKAVTVHYGLGEDLKWLSDLCQEQGIEHEIIYTQIAATINEKRREKSSFCSFCSRLRRGTLYSKALEEGYNKVAIAHHLDDAVESFFMNFTYNGSLRSMPPIYRAENGLLVIRPLIKVREASSIHFVTSQNIPVAPDCNCPAKQPTSDKPPIARLATKNFLKEMQNLHPRFFDSLENAFNNVQANSFSDAKYLDA” was “not soluble”.
The value for “MSLIVKFCGFKTESDIKKIKKLEVDAVGFIHYPDSKRHVSLKQLKYLAKIVPDHIEKVVVVVNPQMSTIKRIINQTDINTIQLHGNESIQLIRNIKKLNSKIRIIKAIPATRNLNNNIQKYKDEIDMFIIDTPSITYGGTGQSFDWKLLKKIKGVDFLIAGGLDFEKIKRLEIYSFGQCGYDISTGIESHNEKDFNKMTRILKFLKGDEGHHHHHH” was “not soluble”; that for “MGSDKIHHHHHHMELSQNAPNELEYIREFLNTWRIPNDTREAIDLLQTEEDIKLFMKEYFHEEFPFHTIEELKSFREDIRMTIEGEGSLEKWLEKYPFHVYIKEDMKGITYEPIHEETVYTKVLSIVLIAVQENLWGRLKACPDCRWVFYDNSRNGSKRWCGMYAGEEGGRACGTIAKVKNYRAKRKGRSGYNV” was “not soluble”; that for “MSLHIIILSPVMPIWDRGVFCSSFTKLCLARGFHITLLDTLSLFPSHSAFCNNSTVEILPFITEKLKKYFKEPSVLVGFSMAGMLVQILAARLPNVQAVLAVNAPGYPDKPLKRQIGCILTFLKNKDLSGALEILNSFMCPRGGREKRVLWEIPDEQKSVAIERMTRGFTFLLGGDARDEIIKYTGKFLALIGEKSQLATLANQTKSQCLNHEYQVISGAGTRLWDDNPAMTNAIVHKWIDAL” was “not soluble”.
Take “MGSDKIHHHHHHMKVLVVDNSRWWGGAEKNLQTLVDNRSNAIEFNVLSDYPMSHNITYRDFCGVRYRFDNSYFIRYLDNKYQIKGMRIFRLIYKSLYLIPSLVRYNPDIVHFNLYRSSDILDIIVCKILRKKVVLHIRSLANRIKIAPLTIKLADAVICVSKSVKQGFSFTGNKYHVIYNGIDSKYYHLVPQDQAREKLGINLTSFVIGSIGNLEREKGHDVAVKALKKIIDDGNVVVALIIVGKDSTINESETKRILTLSKDLGVQGHIKIFSISHKDIHYVYSACDIVLTLCIDGEAFGMIPLEAAMHNRPVIATNVGACRETIIHNQTGLLCEPNSPVALVQAIDTIMKDKKYCDQLTESARNRVLHKYSADAYRDSVYKIYITITKENKRKL”: the “soluble on expression in E. coli” value was “not soluble”.
The value for “MELKDDDFEKISELGAGNGGVVFKVSHKPSGLVMARKLIHLEIKPAIRNQIIRELQVLHECNSPYIVGFYGAFYSDGEISICMEHMDGGSLDQVLKKAGRIPEQILGKVSIAVIKGLTYLREKHKIMHRDVKPSNILVNSRGEIKLCDFGVSGQLIDSMANSFVGTRSYMSPERLQGTHYSVQSDIWSMGLSLVEMAVGRYPIPPPDAKELELMFGCQVEGDAAETPPRPRTPGRPLSSYGMDSRPPMAIFELLDYIVNEPPPKLPSGVFSLEFQDFVNKCLIKNPAERADLKQLMVHAFIKRSDAEEVDFAGWLCSTIGLNQPSTPTHAAGVLEHHHHHH” was “soluble”; that for “MTNNNQIGENKEQTIFDHKGNVIKTEDREIQIISKFEEPLIVVLGNVLSDEECDELIELSKSKLARSKVGSSRDVNDIRTSSGAFLDDNELTAKIEKRISSIMNVPASHGEGLHILNYEVDQQYKAHYDYFAEHSRSAANNRISTLVMYLNDVEEGGETFFPKLNLSVHPRKGMAVYFEYFYQDQSLNELTLHGGAPVTKGEKWIATQWVRRGTYK” was “soluble”; that for “MGSDKIHHHHHHQSMKKEEVPQNISAFPLGKENTGFKQYFTGESWLAPLTGNKDLNVPMSNVTFEPGCRNNWHSHTGGQILIAVGGVGYYQERGKAARRLLPGDVVEIAPDIEHWHGAAPDSWFSHLAIGCNPQTNKNIWLEQVDDQQYAEATKDNGGTGLSATDPELDAIFGNFTKEVQQYGNLDTKTRLMVTLASNIASQAQTEYRMMLESALNAGITPIEIKEILYQAVAYAGMAKVMDFVGITNEALLAHGVRLPLEGQAVVSAETRFDKGLALQKSIFGERIDQMHKNAPENQKHIQRYLSANCFGDYQTRGGLDVKTRELLTFSILVSLGGCESQVKGHIQGNVNVGNNKDTLLAVVTQLLPYIGYPRTLNAIACLNEVIPEK” was “not soluble”.
The value for “GSLPEVLQAPVGSSILVQCHYRLQDVKAQKVWCRFLPEGCQPLVSSAVDRRAPAGRRTFLTDLGGGLLQVEMVTLQEEDAGEYGCMVDGARGPQILHRVSLNILPP” was “soluble”.
